B1: Lef1_Biot (dsDNA)
DNA 1: CATTTCTTTATGTCCTTTGTTTACTGTTCTG
DNA 2: CAGAACAGTAAACAAAGGACATAAAGAAATG
B2: Lef1_s1 (dsDNA)
DNA 1: B1 DNA 1
DNA 2: B1 DNA 2
B3: Lef1_Δ_s1 (dsDNA)
DNA 1: CATTTCTTTATGTCAGGGTGGTACTGTTCTG
DNA 2: CAGAACAGTACCACCCTGACATAAAGAAATG

How the values were obtained:
[1] = target: T1, SOX17-Flag (rSOX17-Flag) (UniProt Q9H6I2 1-414); assay: EMSA; EMSA: 100 mM HEPES pH 8.0, 50 mM KCl, 500 uM DTT, 50 uM EDTA, 1 mM MgCl2, 5% glycerol, 0.02 U poly(dG-dC), 0.3 pmol biotin probe, 300-fold excess competitor; 7%
[2] = target: T1, SOX17-Flag (rSOX17-Flag); assay: competition; 300-fold excess vs Lef1_Biot; EMSA: 100 mM HEPES pH 8.0, 50 mM KCl, 500 uM DTT, 50 uM EDTA, 1 mM MgCl2, 5% glycerol, 0.02 U poly(dG-dC), 0.3 pmol biotin probe, 300-fold excess competitor; 7%

T1 sequence (Q9H6I2 whole entry): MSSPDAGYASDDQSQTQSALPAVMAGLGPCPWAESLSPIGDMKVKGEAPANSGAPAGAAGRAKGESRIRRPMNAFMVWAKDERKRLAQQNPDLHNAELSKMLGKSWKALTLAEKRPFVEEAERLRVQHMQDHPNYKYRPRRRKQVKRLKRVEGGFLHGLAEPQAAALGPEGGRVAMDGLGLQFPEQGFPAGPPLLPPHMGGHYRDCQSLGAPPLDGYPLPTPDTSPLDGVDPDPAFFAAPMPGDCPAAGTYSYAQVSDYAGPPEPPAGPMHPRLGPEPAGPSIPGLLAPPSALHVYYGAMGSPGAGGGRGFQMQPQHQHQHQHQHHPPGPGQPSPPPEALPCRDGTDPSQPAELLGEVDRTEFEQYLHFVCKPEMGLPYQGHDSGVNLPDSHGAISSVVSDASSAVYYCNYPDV

Binder	binding result [1]	binding result [2]
B1	binds	–
B2	–	binds
B3	–	no binding

— article PMC4519987
